Data: the supplement of paper PMC9170038

System: MS2 coat protein
Test: apparent KD of MS2 coat protein; designed switch direction (-1 OFF switch, 1 ON switch): -1; higher = weaker reporter binding
Outline: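 Designed RNA switches were transcribed on Illumina chips by stalled E. coli RNA polymerase and titrated with SNAP-549-labelled MS2 coat protein from 0.7 or 1.5 nM, doubling to 3 µM. Step length ran from 0.8–1.5 h at the lowest concentration to 10–20 min at the highest. The apparent KD is the median over clusters for each design, from curve-fitted normalised cluster fluorescence.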

[1] = input ligand: microRNA oligo, concentration not stated
[2] = Eterna round: R95, input ligand: FMN 200 uM
[3] = Eterna round: R95, input ligand: microRNA oligo, concentration not stated
[4] = Eterna round: R95, input ligand: none

Sequence	apparent KD of MS2 coat protein (input ligand: FMN 200 uM) [nM]	apparent KD of MS2 coat protein (input ligand: none) [nM]	apparent KD of MS2 coat protein [1] [nM]	apparent KD of MS2 coat protein [2] [nM]	apparent KD of MS2 coat protein [3] [nM]	apparent KD of MS2 coat protein [4] [nM]
UUGUCGGCAGGAUAUACAUGAGGAUCACCCAUGUAAAUUUUUCGUUUAACUUGAAUGUGUAGAAGGGCCAUGUA [Ex3 #70] (Eterna round: R97, puzzle: Exclusion 3)	28.2	25.2				
UUGUCGUGUGUAGGAUAUCGUUGGCGUUCGCCGCGAGAAGGACAUGAGGAUCACCCAUGUGCGUCAGGGUCGUCCACAGGUGAU [-27/-25 Kcal and A 19%] (Eterna round: R96, puzzle: Exclusion NG 1)	663	371	281			
UUGUGCACGCUGCGGUCCUACAUGAGGAUCACCCAUGUGGUCUGGUGGCGUGGGUCGCCGGACUUGGCUCGUCUUGG [salish99_S_TOV1_R5_026] (Eterna round: R97, puzzle: Sensor, turn-off variant 1)	16.9	16.9				
UUGUGGGUACGAAGGUGUAGUUUGAGCGUACGUUCUGUAACAUGAGGAUCACCCAUGUCGCUUUUUGCUCGUCUUAU [JR_SV3TOV2_Sub036] (puzzle: Sensor v3, turn-off variant 2)				24.7	68.2	24.8
UUGUUACAUGAGGAUCACCCAUGUGAGGAUAUGGUUCAGUAAUGUAAUGUAAAGUAAUCCAGAAGGCACAUGUU [1st #26] (Eterna round: R97, puzzle: Exclusion 1)	1290	756				
UUGUUAUAUGUAGGAUAUGCGUGUUAUUGUUAGGCAGAAGGACAUGAGGAUCACCCAUGUAUGUUGUUGUUAUAUAUUAUAUAU [Title] (Eterna round: R96, puzzle: Exclusion NG 1)	41.9	34.4	21.2			
UUGUUCCAUUAUGAGAUCCACAUGAGGAUCACCCAUGUAGGAGUAACAAGCUUUGCUCGAUCUAUUUCAUGCUUCUG [Eternabot (L1) Solution 40] (Eterna round: R97, puzzle: Sensor, turn-off variant 1)	65.8	80.6				
UUGUUCCGUGUAGGAUAUUGGCCUUCCUCGGGCCGAGAAGGACAUGAGGAUCACCCAUGUAUGCUAUUAUCGCGCGUGGCGCAC [Design 95] (Eterna round: R96, puzzle: Exclusion NG 1)	279	39.9	22.4			
UUGUUCGAGCGGAGUUCUCACAUGAGGAUCACCCAUGUGCUCGUCUUGUGUGGUUCUGUGGCGUGGUUCGCGGUGCC [Sensor, turn-off variant 1] (Eterna round: R97, puzzle: Sensor, turn-off variant 1)	237	292				
UUGUUGUAUGUAGGAUAUGCAUAUUAUUAUUAUGCAGAAGGACAUGAGGAUCACCCAUGUAUAUUAUUAUUAUAUAUUAUAUAU [Title] (Eterna round: R96, puzzle: Exclusion NG 1)			23.5			
UUGUUGUAUGUAGGAUAUGCAUAUUAUUAUUAUGCAGAAGGACAUGAGGAUCACCCAUGUAUAUUAUUAUUAUAUGUUAUAUAU [Title] (Eterna round: R96, puzzle: Exclusion NG 1)			20			
UUGUUGUAUGUAGGAUAUGCAUAUUAUUAUUAUGCAGAAGGACAUGAGGAUCACCCAUGUAUGUUAUUAUUAUAUGUUAUAUAU [Title] (Eterna round: R96, puzzle: Exclusion NG 1)			21.3			
UUGUUGUAUGUAGGAUAUGCGUGUUAUUAUUAUGCAGAAGGACAUGAGGAUCACCCAUGUGUAUUAUUAUUAUAUAUUAUAUAU [Title] (Eterna round: R96, puzzle: Exclusion NG 1)			14.1			
UUGUUGUGUGUAGGAUAUGCGUGUUAUUAUUAUGCAGAAGGACAUGAGGAUCACCCAUGUGUAUUGUUAUUAUAUAUUAUAUAU [Title] (Eterna round: R96, puzzle: Exclusion NG 1)			15.6			
UUGUUUUUCACAGGAUAUCGCCUCUUAUUACAUGAGGAUCACCCAUGUUUAUUUUGUUACAUGUUCGAGAAGGGUGUAGUCUUU [JR_ExcNG2_Sub047] (Eterna round: R96, puzzle: Exclusion NG 2)	586	475	368			
UUUAAAACAUAGGAUAUCGAAAUAAUCAUUUAACGAGAAGGAUGAACAUGAGGAUCACCCAUGUGGUAUCAUGG [Mat - Exclusion 6 - JL Mod - D18] (puzzle: Exclusion 6)				364	230	409
UUUAAACAUGAGGAUCACCCAUGUUAGGAUAUACGCAUGCAGACACACACGGAUGCAAGUAGAAGGAACCAUGC [Design #7] (Eterna round: R97, puzzle: Exclusion 1)	23.6	22.9				
UUUAACAAGCCAGAUCCUAACAUGAGGAUCACCCAUGUGCUCGUCUGAUUUUGUACUAUCAUGUGAGUGAUAGUAUU [Level Boss var2-04] (puzzle: Sensor v3, turn-off variant 1)				174	683	308
UUUAACAAGCCAGAUCCUCACAUGAGGAUCACCCAUGUGCUCGUCUGAUUUUGUACUAUCAUGUGAGUGAUAGUAUU [Level Boss var2-05] (Eterna round: R96, puzzle: Sensor v3, turn-off variant 1)	360	300	39.1			
UUUAACAAGCCAGAUCCUCACAUGAGGAUCACCCAUGUGCUCGUCUGAUUUUGUACUAUCAUGUGAGUGAUAGUAUU [Level Boss var2-05] (puzzle: Sensor v3, turn-off variant 1)				165	15.2	181
UUUAACAAGCCAGAUCCUCACAUGAGGAUCACCCAUGUGCUCGUCUGUUUUUGUACUAUCACGUUUGUGAUAGUGUU [Level Boss var2-08] (puzzle: Sensor v3, turn-off variant 1)				220	16.2	295
UUUAAGGUAAUUAAGAUCACAUGAGGAUCACCCAUGUAUAUAUAGGAUAUCAGCUCGUGUAGAGCUGAGAAGGAUAUAUACAUA [ExNG3/6-C3] (Eterna round: R96, puzzle: Exclusion NG 3)	24.9	542	48.3			
UUUAAUUUAAUUAAGAUCACAUGAGGAUCACCCAUGUAAUUAUAGGAUAUCAGCUCGAAUAGAGCUGAGAAGGAUAAUUACAUA [ExNG3/5-A4] (Eterna round: R96, puzzle: Exclusion NG 3)			67.6			
UUUAAUUUAAUUAAGAUCACAUGAGGAUCACCCAUGUAUAUAUAGGAUAUCAGCUCGAAUAGAGCUGAGAAGGAUAUAUACAUA [ExNG3/4-A4] (Eterna round: R96, puzzle: Exclusion NG 3)			39.4			
UUUAAUUUUUUUUUUUUACAAGCUUUUUGCUCGUCUUAUACAUGAGGAUCACCCAUGUAAAUGGGAAAUGAAUUAUC [JMF 95] (puzzle: Sensor v3, turn-off variant 2)				322	447	188
UUUAAUUUUUUUUUUUUACAAGCUUUUUGCUCGUCUUAUACAUGAGGAUCACCCAUGUAGGUGAAAGAUAAAUUAUC [JMF 4] (puzzle: Sensor v3, turn-off variant 2)				31.5	77.5	33.5
UUUAAUUUUUUUUUUUUACAAGCUUUUUGCUCGUCUUAUACAUGAGGAUCACCCAUGUAGGUGAGAAGUAAAUUAUC [JMF 49] (puzzle: Sensor v3, turn-off variant 2)				19.3	168	23.3
UUUAAUUUUUUUUUUUUACAAGCUUUUUGCUCGUCUUAUACAUGAGGAUCACCCAUGUGAGUGGGAAAUGAAUUAUC [JMF 100] (puzzle: Sensor v3, turn-off variant 2)				99	218	111
UUUAAUUUUUUUUUUUUACAAGCUUUUUGCUCGUCUUAUACAUGAGGAUCACCCAUGUGGAUGGGAAGUAAAUUAUC [JMF 52] (puzzle: Sensor v3, turn-off variant 2)				23.9	59.2	20.9
UUUAAUUUUUUUUUUUUACAAGCUUUUUGCUCGUCUUAUACAUGAGGAUCACCCAUGUGGGUGAGAAAUGAAUUAUC [JMF 93] (puzzle: Sensor v3, turn-off variant 2)				59.9	10.2	76.8
